{
  "source": "patent US20060234299A1",
  "about": "“Protein scaffolds and uses thereof” (Avidia Research Institute, priority 2004, published 2006)",
  "origin": "cited, not measured here",
  "data": [
    {"details": "commercial drugs", "units": {"Human T½": "h"}, "values": [
      {"substance": "Remicade: TNFa Antibody", "Human T½": 216},
      {"substance": "Rituxan: CD20 Antibody", "Human T½": 78},
      {"substance": "Enbrel", "Human T½": 103}
    ]}
  ]
}
